This is an account of results in the supplement of paper PMC9112550, “Optimization of the antimicrobial peptide Bac7 by deep mutational scanning” (BMC Biology, 2022).
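Note: peptides expressed intracellularly from a pBAD plasmid library in pooled LB shake-flask culture, induced with 0.3% L-arabinose, DNA abundance read by NGS, three biological replicates, DESeq2 with apeglm shrinkage.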

The data set concerns Escherichia coli TOP10. As to the kind of experiment: shrunken log2 fold change of peptide-encoding DNA abundance (4.5 h post-induction vs induction); higher = less antimicrobial activity (less host growth inhibition). The settings on record: time post-induction: 4.5 h; library: site-saturation at positions 5, 18, 19, 20.
Take RRIRYRPPRLPRPRPRPPLQPRP: the “shrunken log2 fold change” value amounted to 0.187. Under RRIRTRPPRLPRPRPRPLLQPRP stands 0.173; under RRIRIRPPRLPRPRPRPTAVPRP, 0.028.

Regarding RRIRKRPPRLPRPRPRPCDFPRP, the “shrunken log2 fold change” value was -0.231. Turning to RRIRIRPPRLPRPRPRPKLRPRP, the “shrunken log2 fold change” value stood at 0.349. To RRIRVRPPRLPRPRPRPCAHPRP belongs -0.0704. Under RRIRSRPPRLPRPRPRPRCYPRP stands -0.107; under RRIRSRPPRLPRPRPRPHCSPRP, -0.686; under RRIRIRPPRLPRPRPRPDVMPRP, -0.17. Under RRIRPRPPRLPRPRPRPCFLPRP stands -0.382. For the sequence RRIRFRPPRLPRPRPRPPGHPRP, the “shrunken log2 fold change” value came to 0.337.

Turning to RRIRARPPRLPRPRPRPSSDPRP, the “shrunken log2 fold change” value amounted to 0.301. To RRIRIRPPRLPRPRPRPLCEPRP belongs -0.332; to RRIRHRPPRLPRPRPRPCHIPRP, -0.454; to RRIRPRPPRLPRPRPRPLRPPRP, 0.726. To RRIRARPPRLPRPRPRPGVIPRP belongs 0.0533; to RRIRPRPPRLPRPRPRPIIPPRP, -0.339.

With RRIRHRPPRLPRPRPRPIPNPRP, the “shrunken log2 fold change” value is 0.101.

Regarding RRIRARPPRLPRPRPRPLKIPRP, the “shrunken log2 fold change” value was -0.165. Take RRIRGRPPRLPRPRPRPVQAPRP: the “shrunken log2 fold change” value was determined as 0.891. RRIRVRPPRLPRPRPRPPRRPRP: the “shrunken log2 fold change” value was 0.491. Regarding RRIRQRPPRLPRPRPRPPKGPRP, the “shrunken log2 fold change” value came to 0.021.

As to RRIRWRPPRLPRPRPRPYFSPRP, the “shrunken log2 fold change” value was -0.722. With RRIRIRPPRLPRPRPRPSWEPRP, the “shrunken log2 fold change” value was -0.621. Take RRIRLRPPRLPRPRPRPCYCPRP: the “shrunken log2 fold change” value is -0.219. To RRIRCRPPRLPRPRPRPFVPPRP belongs -0.139; to RRIRPRPPRLPRPRPRPCGQPRP, 0.311; to RRIRKRPPRLPRPRPRPQGNPRP, 0.0216.

As for RRIRLRPPRLPRPRPRPFSIPRP, the “shrunken log2 fold change” value was -0.158.

For the sequence RRIRIRPPRLPRPRPRPTTAPRP, the “shrunken log2 fold change” value is -0.00422. With RRIRPRPPRLPRPRPRPAWTPRP, the “shrunken log2 fold change” value was determined as 0.492.

Regarding RRIRDRPPRLPRPRPRPCTDPRP, the “shrunken log2 fold change” value is -0.00136. To RRIRIRPPRLPRPRPRPINLPRP belongs -0.146; to RRIRLRPPRLPRPRPRPYGYPRP, -0.01.

Regarding RRIRTRPPRLPRPRPRPGPSPRP, the “shrunken log2 fold change” value turned out to be 0.438.

As for RRIRQRPPRLPRPRPRPCHVPRP, the “shrunken log2 fold change” value is -0.167.

For the sequence RRIRWRPPRLPRPRPRPKDFPRP, the “shrunken log2 fold change” value is 0.0488.

For RRIRHRPPRLPRPRPRPRATPRP, the “shrunken log2 fold change” value amounted to 0.554. To RRIRHRPPRLPRPRPRPHYFPRP belongs 0.00508; to RRIRNRPPRLPRPRPRPDFEPRP, -0.0968. To RRIRSRPPRLPRPRPRPGCHPRP belongs 0.328; to RRIRNRPPRLPRPRPRPPMTPRP, 1.77. Under RRIRARPPRLPRPRPRPNYTPRP stands -0.329. In the case of RRIRARPPRLPRPRPRPYCYPRP, the “shrunken log2 fold change” value is -0.227. To RRIRWRPPRLPRPRPRPVMNPRP belongs -0.133; to RRIRKRPPRLPRPRPRPALPPRP, 0.936. With RRIRYRPPRLPRPRPRPGYLPRP, the “shrunken log2 fold change” value is -0.33. With RRIRSRPPRLPRPRPRPFADPRP, the “shrunken log2 fold change” value was -0.0303. To RRIRFRPPRLPRPRPRPSETPRP belongs -0.13; to RRIRQRPPRLPRPRPRPQQYPRP, -0.0402; to RRIRKRPPRLPRPRPRPSAGPRP, 0.227. In the case of RRIRIRPPRLPRPRPRPHQVPRP, the “shrunken log2 fold change” value was -0.614. For the sequence RRIRKRPPRLPRPRPRPDRLPRP, the “shrunken log2 fold change” value is -0.038.

For the sequence RRIRWRPPRLPRPRPRPLYYPRP, the “shrunken log2 fold change” value was -0.762. For RRIRVRPPRLPRPRPRPWCWPRP, the “shrunken log2 fold change” value was -0.0537. To RRIRSRPPRLPRPRPRPYSPPRP belongs -0.839. To RRIRCRPPRLPRPRPRPSGVPRP belongs -0.311.

As to RRIRWRPPRLPRPRPRPEGTPRP, the “shrunken log2 fold change” value came to 0.103. With RRIRKRPPRLPRPRPRPTLLPRP, the “shrunken log2 fold change” value worked out at 0.083. To RRIRKRPPRLPRPRPRPRQSPRP belongs 0.0892; to RRIRTRPPRLPRPRPRPEGKPRP, 0.0733; to RRIRFRPPRLPRPRPRPKVPPRP, -0.109. As to RRIRERPPRLPRPRPRPPTYPRP, the “shrunken log2 fold change” value was -0.168.

For the sequence RRIRSRPPRLPRPRPRPPWVPRP, the “shrunken log2 fold change” value is 0.433.

For the sequence RRIRARPPRLPRPRPRPEHYPRP, the “shrunken log2 fold change” value worked out at 0.068. RRIRKRPPRLPRPRPRPFQAPRP: the “shrunken log2 fold change” value came to 0.0945. To RRIRPRPPRLPRPRPRPCMSPRP belongs -0.0701; to RRIRMRPPRLPRPRPRPTLPPRP, 0.248. As for RRIRARPPRLPRPRPRPCHLPRP, the “shrunken log2 fold change” value is -0.171. To RRIRNRPPRLPRPRPRPPDAPRP belongs 0.0157; to RRIRVRPPRLPRPRPRPGCNPRP, -0.216; to RRIRVRPPRLPRPRPRPNSIPRP, 0.0266. On to RRIRRRPPRLPRPRPRPRNKPRP, for which the “shrunken log2 fold change” value worked out at 0.0888.

Take RRIRHRPPRLPRPRPRPFPQPRP: the “shrunken log2 fold change” value stood at 3.88. Consider RRIRFRPPRLPRPRPRPIFQPRP, for which the “shrunken log2 fold change” value is -0.46. Under RRIRVRPPRLPRPRPRPFECPRP stands -0.0624; under RRIRCRPPRLPRPRPRPTEFPRP, -0.0561; under RRIRGRPPRLPRPRPRPCKCPRP, -0.082. For the sequence RRIRNRPPRLPRPRPRPAWEPRP, the “shrunken log2 fold change” value was found to be 0.247. Under RRIRVRPPRLPRPRPRPTLPPRP stands 0.335. Under RRIRVRPPRLPRPRPRPYCYPRP stands -0.745; under RRIRVRPPRLPRPRPRPQRMPRP, 0.0511; under RRIRHRPPRLPRPRPRPCMYPRP, -0.0819. Under RRIRHRPPRLPRPRPRPSWWPRP stands 0.348. Take RRIRNRPPRLPRPRPRPSNDPRP: the “shrunken log2 fold change” value was -0.349.

Regarding RRIRNRPPRLPRPRPRPGCVPRP, the “shrunken log2 fold change” value stood at 0.634.

Consider RRIRVRPPRLPRPRPRPDMRPRP, for which the “shrunken log2 fold change” value was -0.437.

RRIRMRPPRLPRPRPRPSWHPRP: the “shrunken log2 fold change” value was -0.103. Under RRIRHRPPRLPRPRPRPVHHPRP stands -0.0583; under RRIRGRPPRLPRPRPRPHIEPRP, 1.15; under RRIRVRPPRLPRPRPRPKIVPRP, 0.2. For the sequence RRIRMRPPRLPRPRPRPERRPRP, the “shrunken log2 fold change” value was determined as 0.689.

Take RRIRVRPPRLPRPRPRPGSSPRP: the “shrunken log2 fold change” value is -0.169. To RRIRSRPPRLPRPRPRPMQDPRP belongs 0.125; to RRIRNRPPRLPRPRPRPPVCPRP, 0.126. Under RRIRPRPPRLPRPRPRPEEGPRP stands -0.0155; under RRIRCRPPRLPRPRPRPSYNPRP, -0.816. Turning to RRIRMRPPRLPRPRPRPARFPRP, the “shrunken log2 fold change” value was determined as 0.251. As to RRIRMRPPRLPRPRPRPKPWPRP, the “shrunken log2 fold change” value came to 1.12. Under RRIRTRPPRLPRPRPRPLYEPRP stands -0.774; under RRIRRRPPRLPRPRPRPCKSPRP, 0.263. Under RRIRCRPPRLPRPRPRPQNQPRP stands -0.00207; under RRIRNRPPRLPRPRPRPFRWPRP, 0.0512; under RRIRIRPPRLPRPRPRPEITPRP, -0.461. RRIRLRPPRLPRPRPRPDEKPRP: the “shrunken log2 fold change” value was -0.00968.

In the case of RRIRMRPPRLPRPRPRPSFHPRP, the “shrunken log2 fold change” value was -0.432. Under RRIRYRPPRLPRPRPRPMNLPRP stands -0.0114; under RRIRLRPPRLPRPRPRPYHNPRP, -0.712. To RRIRRRPPRLPRPRPRPYICPRP belongs -0.452.

Consider RRIRRRPPRLPRPRPRPAGRPRP, for which the “shrunken log2 fold change” value was found to be 0.41. RRIRFRPPRLPRPRPRPITHPRP: the “shrunken log2 fold change” value was -0.49. Regarding RRIRERPPRLPRPRPRPGKPPRP, the “shrunken log2 fold change” value was 0.231. As to RRIRWRPPRLPRPRPRPNKMPRP, the “shrunken log2 fold change” value is 0.075. Under RRIRDRPPRLPRPRPRPGEQPRP stands 0.259; under RRIRNRPPRLPRPRPRPNVYPRP, -0.17. Under RRIRMRPPRLPRPRPRPGPFPRP stands 0.222; under RRIRGRPPRLPRPRPRPRYFPRP, -0.0468.

RRIRPRPPRLPRPRPRPESFPRP: the “shrunken log2 fold change” value was -0.216. To RRIRQRPPRLPRPRPRPIFPPRP belongs 0.122; to RRIRQRPPRLPRPRPRPWMIPRP, 0.0219. Under RRIRSRPPRLPRPRPRPLHCPRP stands 0.0547.

As for RRIRPRPPRLPRPRPRPPLVPRP, the “shrunken log2 fold change” value was found to be 0.389.

Take RRIRDRPPRLPRPRPRPSLQPRP: the “shrunken log2 fold change” value was found to be 0.073.

Turning to RRIRNRPPRLPRPRPRPPIDPRP, the “shrunken log2 fold change” value was -0.306. To RRIRFRPPRLPRPRPRPDQPPRP belongs 0.57.
